Reference: patent US20130101549A1 (Biogen, published 2013)

T1: Her2-Fc D1 (MR066)
T1 construct: also called ErbB2-Fc Domain 1
T1 chain: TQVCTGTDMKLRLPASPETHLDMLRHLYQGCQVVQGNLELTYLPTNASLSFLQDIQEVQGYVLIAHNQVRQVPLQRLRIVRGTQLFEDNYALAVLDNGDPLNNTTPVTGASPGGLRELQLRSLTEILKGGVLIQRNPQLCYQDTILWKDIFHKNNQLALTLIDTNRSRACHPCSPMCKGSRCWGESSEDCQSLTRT

T2: Her2-Fc D1-D2 (MR067)
T2 construct: also called ErbB2-Fc Domains 1-2
T2 chain: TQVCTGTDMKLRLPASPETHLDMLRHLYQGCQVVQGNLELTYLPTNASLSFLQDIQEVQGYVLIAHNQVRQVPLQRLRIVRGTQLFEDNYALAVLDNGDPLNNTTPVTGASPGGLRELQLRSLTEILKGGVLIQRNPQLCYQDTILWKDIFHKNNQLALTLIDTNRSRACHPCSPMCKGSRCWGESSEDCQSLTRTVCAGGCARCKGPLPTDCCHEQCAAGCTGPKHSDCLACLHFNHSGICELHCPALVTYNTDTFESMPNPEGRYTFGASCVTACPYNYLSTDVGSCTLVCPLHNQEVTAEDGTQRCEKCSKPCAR


How the values were obtained:
EGFR on MDA-MB-468 cells = target: T3, EGFR on MDA-MB-468 cells (UniProt P00533 25-1210, limits assumed); assay: FACS on MDA-MB-468 cells (EGFR+, HER2-)
T3 construct: whole, on cells; also called MDA-MB-468 tumor cell line (EGFR+, HER2-)

murine HER2-Fc [1] = target: T4, murine HER2-Fc (mouse; human, UniProt P70424 23-653); assay: ELISA on coated muHER2-Fc, HRP anti-human kappa; the number is C of the printed 4-P fit y=(A-D)/(1+(x/C)^B)+D (A 0.002, B 0.792, D 0.827, R^2 0.999); x axis: Fab equivalent concentration; C lies beyond the last point (about 14000 ng/ml, OD about 0.28): extrapolated by the fit
T4 construct: extracellular domain; Bought from R&D Systems; also called murine ErbB2-Fc; not shown: Fc fragment of human IgG1

Her2-Fc D1 (MR066) = target: T1, Her2-Fc D1 (MR066); assay: ELISA, HER2-Fc construct captured by anti-huFc, Fab from 1 ug/ml in 5-fold steps, HRP anti-kappa/lambda
Experimental: (§1) Nunc Maxisorp ELISA plates were coated with 5 ug/ml rabbit pAbs anti-human Fc gamma in PBS overnight at 4 degrees. Plates were washed one time with PBST (PBS, 0.05% tween 20) and blocked with 1% BSA in PBS for one hour at room temperature. Plates were washed one time with PBST and incubated with 1 ug/ml HER2-Fc fusion protein for one hour. Plates were washed three times with PBST and dilutions of Fab (four 5-fold serial dilutions, starting at 1 ug/ml) in block were added and incubated for ninety minutes. Plates were washed three times with PBST and incubated with 1:2,000 HRP-labelled goat anti-human kappa (Southern Biotech cat#2060-05) and HRP-labelled goat anti-human lambda (Southern Biotech cat#2070-05) in block for one hour at room temperature. Plates were washed three times with PBST, developed with TMB solution for 5 minutes, and stopped with equal volume 1 N H₂SO₄. Absorbance values were read at 450 nm.

[2] = target: T5, Her2-Fc D1-D2-D3-D4 (MR069); assay: as above
T5 construct: made in house, kept apart from the R&D Systems HER2-Fc; also called ErbB2-Fc full length ECD
Experimental: as §1

Her2-Fc D1-D2 (MR067) = target: T2, Her2-Fc D1-D2 (MR067); assay: as above
Experimental: as §1

Her2-Fc D1-D2-D3 (MR068) = target: T6, Her2-Fc D1-D2-D3 (MR068); assay: as above
T6 construct: also called ErbB2-Fc Domains 1-3
Experimental: as §1

[3] = target: T7, human HER2/ErbB2 on cells (human, UniProt P04626 23-1255); assay: flow cytometry on CHO cells expressing human HER2
T7 construct: whole, on cells; also called hHER2/ErbB2; wild type HER2/ErbB
Experimental: CHO cells (Chinese Hamster Ovary cells) stably transfected with hHER2 expression vector and selected in G418 containing medium. G418 resistant clones were pooled and split 24 hours prior to the setup of the assay to obtain 70% confluent monolayer. Routinely, CHO cell line was maintained within 20 passages. Cells were lifted with cell dissociation buffer (Gibco catalog #13151-014), counted, washed and adjusted to 1×10⁶ cells/ml and one ml of cells were then added to each tube (12×75 mm tube Falcon catalog #352054). Cells were pelleted and supernatant removed by centrifugation at 1200 rpm for 5 min and 100 μl of diluted antibodies were then added to the cell pellet. Purified Fabs were tested at a starting concentration of either 210 or 60 μg/ml with 1:3 dilutions in FACS buffer, down to 0.001 μg/ml. FACS buffer used throughout the assay was PBS (without Ca^{+±}/Mg^{+±}) containing 1% BSA (Sigma catalog #A-7906) and 0.1% Sodium Azide (Sigma catalog #S2002). Samples were allowed to incubate on ice for 1 hour and 15 minutes then were washed with 2 ml FACS buffer and centrifuged at 1200 rpm for 5 minutes at 4° C. The supernatant was aspirated and 100 μl of the secondary detection antibody was added to each corresponding tube in FACS buffer. Samples were then incubated for 30 minutes on ice, in the dark. Cells were washed as described above, then, re-suspended in 250 μl FACS buffer per tube/sample.
A full titration was performed on MCF7 and SKBR3 tumor cell lines, and human Her2-CHO and murine Her2-CHO cell lines in order to calculate an approximate EC50 (data not shown, see summary in Table 1).

human HER2-Fc [4] = target: T8, human HER2-Fc (human, UniProt P04626 23-652); assay: ELISA on coated huHER2-Fc, HRP anti-human kappa; the number is C of the printed 4-P fit y=(A-D)/(1+(x/C)^B)+D (A -0.004, B 0.92, D 0.931, R^2 1); x axis: Fab equivalent concentration; last point about 13000 ng/ml at OD about 0.73, upper plateau not reached by the points
T8 construct: Bought from R&D Systems: homodimeric fusion of the HER2 extracellular domain and human IgG1 Fc; also called human ErbB2-Fc; rhErbB2-Fc; not shown: Fc fragment of human IgG1

murine HER2-Fc [5] = target: T4, murine HER2-Fc; assay: ELISA on coated muHER2-Fc, HRP anti-human kappa; the number is C of the printed 4-P fit (A -0.002, B 0.6, D 1.035, R^2 1); x axis: Fab equivalent concentration; C lies beyond the last point (about 120 ng/ml, OD about 0.4): extrapolated by the fit
human HER2-Fc [6] = target: T8, human HER2-Fc; assay: ELISA on coated huHER2-Fc, HRP anti-human kappa; the number is C of the printed 4-P fit (A 0.008, B 1.216, D 0.834, R^2 1); x axis: Fab equivalent concentration
human HER2-Fc [7] = target: T8, human HER2-Fc; assay: ELISA on coated HER2-Fc
Experimental: Human and murine ErbB2-Fc were obtained from R&D Systems. Wells of 96-well plates were coated with 2 ug/ml or 0.2 ug/ml of human or murine HER2-Fc by incubation overnight at 4-8° C. with either of these six proteins (80 ul/well of a 0.2 or 2 ug/ml solution in PBS). Wells were emptied, filled completely with a solution of PBS with 1% BSA (blocking buffer) and incubated at room temperature for 1 hour. Wells were emptied, washed twice PBS containing 0.05% Tween 20 (PBST) and filled with the samples (80 ul/well of 3× dilution series of the standard and supernatants in blocking buffer) prepared in another 96-well plate. After a 2-hour incubation at room temperature, the wells were emptied, washed three times with PBST and filled with a solution of HRP-conjugated goat pAbs anti-human kappa chain (80 ul/well of a 2000-fold dilution in blocking buffer). After 1-hour incubation, the wells were emptied and filled with a solution of HRP substrate prepared freshly. The color was left to develop for 3 minutes and was stopped by addition of an equal volume of 1N H₂SO₄. Absorbance was measured at 450 nm using a Plate Reader (SpectraMax, Molecular Devices). The data was processed and graphs were created using SoftMax Pro software.

[8] = target: T7, human HER2/ErbB2 on cells; assay: FACS on HER2-expressing cells

Binder	binding result (EGFR on MDA-MB-468 cells)	EC50 (murine HER2-Fc [1]) [µg/mL]	binding result (Her2-Fc D1 (MR066))	binding result [2]	binding result (Her2-Fc D1-D2 (MR067))	binding result (Her2-Fc D1-D2-D3 (MR068))	EC50 [3] [nM]	EC50 (human HER2-Fc [4]) [µg/mL]	EC50 (murine HER2-Fc [5]) [µg/mL]	EC50 (human HER2-Fc [6]) [µg/mL]	EC50 (human HER2-Fc [7]) [nM]	EC50 [8] [nM]
BIIB71F10 Fab (Fab, V domains shown, Soluble human Fab; also called Fab 71F10) VH: EVQLLESGGGLVQPGGSLRLSCAASGFTFSSYGMVWVRQAPGKGLEWVSSISSSGGLTWYADSVKGRFTISRDNSKNTLYLQMNSLRAEDTAVYYCASPPGIAVARDYWGQGTLVTVSS VL: DIQMTQSPSSLSASVGDRVTITCRASQGISNYLAWYQQKPGKVPKLLIYAASTLQSGVPSRFSGSGSGTDFTLTISSLQPEDVATYYCQKYNSALLTFGGGTKVEIK	no binding	31.8	no binding (tested: 1 ug/ml)	binds	binds	binds	60	3.43				
BIIB71F10 Mab (BIIB71F10-134, 71F10 IgG) (antibody, V domains shown, IgG1; also called BIIB71-F10 antibody) VH: EVQLLESGGGLVQPGGSLRLSCAASGFTFSSYGMVWVRQAPGKGLEWVSSISSSGGLTWYADSVKGRFTISRDNSKNTLYLQMNSLRAEDTAVYYCASPPGIAVARDYWGQGTLVTVSS VL: DIQMTQSPSSLSASVGDRVTITCRASQGISNYLAWYQQKPGKVPKLLIYAASTLQSGVPSRFSGSGSGTDFTLTISSLQPEDVATYYCQKYNSALLTFGGGTKVEIKR									0.248	0.00634	0.07	2
